Laboratory results reported in paper PMC5036783 (Biophysics, 2011).

Key:
Assay in all cases: pull-down; Ni-NTA resin holding histidine tagged fusion pHtrII from cell-free translation; untagged ppR 0.8 mM and pHtrII 0.08 mM mixed in buffer S (300 mM NaCl, 50 mM MES, 5 mM imidazole, pH 6.5) with 0.1% DDM, 1 h, room temperature; eluted ppR read by absorbance at 498 nm
Details in all cases: one partner purified
[1] = molecular target: T1, green fluorescent protein-tagged pHtrII 1-114 (cell-free) (Natronomonas pharaonis, UniProt P42259 1-114)
T1 sequence (looked up): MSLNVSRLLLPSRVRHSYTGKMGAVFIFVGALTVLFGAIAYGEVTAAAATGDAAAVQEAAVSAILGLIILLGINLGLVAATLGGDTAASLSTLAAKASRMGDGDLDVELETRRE

[2] = molecular target: T2, glutathione S-transferase-tagged pHtrII 1-114 (cell-free) (Natronomonas pharaonis, UniProt P42259 1-114)
T2 sequence (looked up): T1 sequence (looked up)

[3] = molecular target: T3, thioredoxin-tagged pHtrII 1-114 (cell-free) (Natronomonas pharaonis, UniProt P42259 1-114)
T3 sequence (looked up): T1 sequence (looked up)

binding activity relative to pHtrII expressed in E. coli [1]: ~50% | binding activity relative to pHtrII expressed in E. coli [2]: ~50% | binding activity relative to pHtrII expressed in E. coli [3]: ~50%
B1: pharaonis phoborhodopsin (ppR), untagged (natural protein, Natronomonas pharaonis, UniProt P42196 1-239, looked up)
chain: MVGLTTLFWLGAIGMLVGTLAFAWAGRDAGSGERRYYVTLVGISGIAAVAYVVMALGVGWVPVAERTVFAPRYIDWILTTPLIVYFLGLLAGLDSREFGIVITLNTVVMLAGFAGAMVPGIERYALFGMGAVAFLGLVYYLVGPMTESASQRSSGIKSLYVRLRNLTVILWAIYPFIWLLGPPGVALLTPTVDVALIVYLDLVTKVGFGFIALDAAATLRAEHGESLAGVDTDAPAVAD
